{"source": "patent US6809076B2", "about": "“Use of anticoagulant agents in the extracorporeal treatment of blood” (Abbott GmbH & Co. KG, priority 2000, dated 2004)", "molecules": {"B1": {"name": "PEG-hirudin: polyethylene glycol conjugates of hirudin; preferably SEQ ID NO:1 polypeptide with PEG residues on lysine 27 and lysine 33 (conjugate)", "chain": "VVYTDCTESGQNLCLCEGSNVCGQGNK(PEG)CILGSK(PEG)GERNQCVTGEGTPRPQSHNDGDFEEIPEEYLQ", "modifications": "ends and bridges not checked"}}, "key": {"meizothrombin": {"target": "T1, meizothrombin (Homo sapiens, UniProt P00734)", "T1 construct": "produces meizothrombin by cleavage of the prothromin in the plasma; from tissue; host or cells: citrated venous blood/plasma of human dialysis patients", "assay": "ECT (ecarin clotting time) determination in dialysis patients", "format": "in vivo", "procedure": "Determination of the ECT (ecarin clotting time) is based on the inhibition of the coagulation activity of meizothrombin. Ecarin, a purified fraction of Echis carinatus venom, produces meizothrombin by cleavage of the prothromin in the plasma. The time until fibrinogen coagulates induced by ecarin is measured.\nThe sample volume is about 100 μl.\nStandard E: [c]=2500 ng/ml (1:20 dilution of standard C with normal human citrated plasma)\nThe measured results can also be stated as ratio and describe the ratio of the current value to the individual baseline value for a patient before the dialysis with PEG-hirudin.\nThe accuracy of measurement is +30% to −10%."}, "thrombin [1]": {"test_system": "thrombin", "settings": "human, in vivo, iv, 0.08 mg/kg", "protocol": "(§1) 20 male and female patients between 18 and 75 years who must regularly undergo hemodialysis were selected. After an initial treatment with heparin (UFH), each patient was given an intravenous injection, immediately before the first dialysis during PEG-hirudin treatment, of a dose of 0.08 mg/kg of PEG-hirudin with a specific antithrombin activity of 13,354 ATU/mg of protein per kg of body weight. This was followed by hemodialysis with an average duration of 4 hours, 3×a week using a Hemophan low flux membrane in a GFS plus 16 dialyzer. When the dialysis was complete and before the subsequent dialysis sessions, firstly the PEG-hirudin concentrations in the patient's blood were determined. The measured values served as the basis for the amount of the PEG-hirudin doses to be administered immediately before each hemodialysis.\nDetermination of the anti-IIa activity is based on measurement of the activity remaining after addition of excess thrombin to the sample. Heparin and other non-thrombin serine proteases are neutralized before the assay by adding prothamine [sic] chloride and aprotinin to the sample. […]\nThe measurement is carried out in an ACL 3000 (incubation time: 120 s; inter-ramp interval: 3 s; delay time: 3 s; aquisition time: 120 s; speed: 600 rpm). The extinction is measured using a 405 nm filter at a constant rotor speed. […]"}, "plasma fibrin formation": {"test_system": "plasma fibrin formation", "assay": "APTT determination in dialysis patients", "format": "in vivo, human", "procedure": "The determination of the activated partial thromboplastin time (APTT) is based on plasma fibrin formation induced by addition of a partial thromboplastin (Actin FS) and calicum [sic] ions to the plasma. Ellagic acid is used as activator.\nThe sample volume is at least 450 μl.\nThe controls used are control plasma in the normal range, control plasma in the therapeutic range, control plasma in the low therapeutic range and a quality control in the normal range, for example the controls commercially available from Dade citrol 1, Citrol 2, Citrol 3 and Coag Trol N.\nThe measurement is carried out in an ACL 3000.\nThe ACL 3000 is a completely automatic, microcomputer-controlled centrifugal analysis system. After the start of the analysis cycle, sample and Actin are pipetted separately into the half-cuvettes of a reaction rotor made of acrylic glass with 20 cuvettes, and are mixed and then incubate d. After the incubation, calcium chloride is pipetted into the cuvettes, mixed and measured. Measurements are carried out while the rotor is rotating. The light source for the nephelometric measurement is a light-emitting diode (LED) whose light beam is directed via a light guide system (γ=660 nm) onto the measuring cuvettes. The scattered light distribution is measured at an angle of 90° to the light source with the aid of a semiconductor sensor located underneath the rotor carrier. The measured results can also be stated as ratio and describe the ratio of the current value to the individual baseline value for a patient before the dialysis with PEG-hirudin.\nThe accuracy of measurement is +10% to −10%."}, "vascular complications": {"test_system": "vascular complications", "assay": "Prophylaxis of vascular complications between hemodialysis sessions", "format": "in vivo, human", "settings": "residual concentration in blood between the hemodialysis sessions, 20 patients", "protocol": "as §1"}, "thrombin [2]": {"target": "thrombin (Homo sapiens, UniProt P00734)", "assay": "Specific antithrombin activity (ATU, WHO I thrombin standard)", "format": "biochemical", "from_the_text": "The blood levels described above can usually be obtained with bolus doses in the range from about […] to about 1400 ATU/kg, preferably from about 400 ATU/kg to about 1200 ATU/kg and, in particular, from about 600 ATU/kg to about 1000 ATU/kg, of body weight. After adaptation it is possible to treat individuals with chronic renal insufficiency, with an average of three exracorporeal circulations a week, with a dosage of about 200 to about 1000 ATU/kg, preferably of about 200 ATU/kg to about 800 ATU/kg and, in particular, from about 400 ATU/kg to about 600 ATU/kg, of body weight. The abbreviation ATU stands for antithrombin units bas ed on the WHO I thrombin standard."}, "[3]": {"settings": "dialysis 04, first with PEG-hirudin (0.08 mg/kg i.v.)"}, "[4]": {"settings": "dialysis 08, PEG-hirudin i.v. before each dialysis"}, "[5]": {"settings": "dialysis 13, PEG-hirudin i.v. before each dialysis"}, "[6]": {"settings": "dialysis 05, PEG-hirudin i.v. before each dialysis"}, "[7]": {"settings": "dialysis 06, PEG-hirudin i.v. before each dialysis"}, "[8]": {"settings": "dialysis 07, PEG-hirudin i.v. before each dialysis"}, "[9]": {"settings": "dialysis 09, PEG-hirudin i.v. before each dialysis"}, "[10]": {"settings": "dialysis 10, PEG-hirudin i.v. before each dialysis"}, "[11]": {"settings": "dialysis 11, PEG-hirudin i.v. before each dialysis"}, "[12]": {"settings": "dialysis 12, PEG-hirudin i.v. before each dialysis"}}, "note": "Marks after values point to notes of the source that are not given here. PEG = not defined here"}
{"molecule": "B1", "values": [{"measurement": "ECT Bolus 5' after admin.", "setting": "meizothrombin; [3]", "result": "3.0 [s] [ratio]"}, {"measurement": "ECT Bolus 5' after admin.", "setting": "meizothrombin; [4]", "result": "3.1 [s] [ratio]"}, {"measurement": "ECT Bolus 5' after admin.", "setting": "meizothrombin; [5]", "result": "3.1 [s] [ratio]"}, {"measurement": "Anti-IIa After dialysis", "setting": "thrombin [1]", "result": 818, "unit": "ng/mL"}, {"measurement": "Anti-IIa Bolus 5' after admin.", "setting": "thrombin [1]; 5 min", "result": 1298, "unit": "ng/mL"}, {"measurement": "APTT After dialysis", "setting": "plasma fibrin formation; [3]", "result": 2.2, "unit": "ratio"}, {"measurement": "APTT Bolus 5' after admin.", "setting": "plasma fibrin formation; [3]", "result": 2.5, "unit": "ratio"}, {"measurement": "APTT Before dialysis", "setting": "plasma fibrin formation; dialysis 04, first with PEG-hirudin (0.08 mg/kg i.v.), before dose", "result": 1.0, "unit": "ratio"}, {"measurement": "APTT After dialysis", "setting": "plasma fibrin formation; [6]", "result": 2.3, "unit": "ratio"}, {"measurement": "APTT Before dialysis", "setting": "plasma fibrin formation; [6]", "result": 1.7, "unit": "ratio"}, {"measurement": "APTT After dialysis", "setting": "plasma fibrin formation; [7]", "result": 2.3, "unit": "ratio"}, {"measurement": "APTT Before dialysis", "setting": "plasma fibrin formation; [7]", "result": 1.9, "unit": "ratio"}, {"measurement": "APTT After dialysis", "setting": "plasma fibrin formation; [8]", "result": 2.2, "unit": "ratio"}, {"measurement": "APTT Before dialysis", "setting": "plasma fibrin formation; [8]", "result": 1.9, "unit": "ratio"}, {"measurement": "APTT After dialysis", "setting": "plasma fibrin formation; [4]", "result": 2.5, "unit": "ratio"}, {"measurement": "APTT Before dialysis", "setting": "plasma fibrin formation; [4]", "result": 2.0, "unit": "ratio"}, {"measurement": "APTT Bolus 5' after admin.", "setting": "plasma fibrin formation; [4]", "result": 2.6, "unit": "ratio"}, {"measurement": "APTT After dialysis", "setting": "plasma fibrin formation; [9]", "result": 2.4, "unit": "ratio"}, {"measurement": "APTT Before dialysis", "setting": "plasma fibrin formation; [9]", "result": 2.0, "unit": "ratio"}, {"measurement": "APTT After dialysis", "setting": "plasma fibrin formation; [10]", "result": 2.3, "unit": "ratio"}, {"measurement": "APTT Before dialysis", "setting": "plasma fibrin formation; [10]", "result": 2.0, "unit": "ratio"}, {"measurement": "APTT After dialysis", "setting": "plasma fibrin formation; [11]", "result": 2.3, "unit": "ratio"}, {"measurement": "APTT Before dialysis", "setting": "plasma fibrin formation; [11]", "result": 2.0, "unit": "ratio"}, {"measurement": "APTT After dialysis", "setting": "plasma fibrin formation; [12]", "result": 2.3, "unit": "ratio"}, {"measurement": "APTT Before dialysis", "setting": "plasma fibrin formation; [12]", "result": 2.0, "unit": "ratio"}, {"measurement": "APTT After dialysis", "setting": "plasma fibrin formation; [5]", "result": 2.2, "unit": "ratio"}, {"measurement": "APTT Before dialysis", "setting": "plasma fibrin formation; [5]", "result": 1.9, "unit": "ratio"}, {"measurement": "APTT Bolus 5' after admin.", "setting": "plasma fibrin formation; [5]", "result": 2.5, "unit": "ratio"}, {"measurement": "prophylactic protection against vascular complications", "setting": "vascular complications", "result": "ensured prophylactic protection against vascular complications"}, {"measurement": "specific antithrombin activity", "setting": "thrombin [2]; PEG-hirudin given to the patients", "result": "13,354 ATU/mg of protein"}, {"measurement": "specific activity", "setting": "thrombin [2]; Standard A, 26.6 mg/ml", "result": "11,696 ATU/mg of protein"}]}
